# According to patent US20240132619A1:
# Tests used:
# [1] = molecular target: human serum albumin (HSA) (human) (UniProt P02768); assay: ELISA, HSA coated on plate, n = 3
# [2] = molecular target: mouse serum albumin (MSA) (mouse) (UniProt P07724); assay: ELISA, MSA coated on plate, n = 3
# Sequence of UniProt P07724 (P07724 25-608 limits assumed): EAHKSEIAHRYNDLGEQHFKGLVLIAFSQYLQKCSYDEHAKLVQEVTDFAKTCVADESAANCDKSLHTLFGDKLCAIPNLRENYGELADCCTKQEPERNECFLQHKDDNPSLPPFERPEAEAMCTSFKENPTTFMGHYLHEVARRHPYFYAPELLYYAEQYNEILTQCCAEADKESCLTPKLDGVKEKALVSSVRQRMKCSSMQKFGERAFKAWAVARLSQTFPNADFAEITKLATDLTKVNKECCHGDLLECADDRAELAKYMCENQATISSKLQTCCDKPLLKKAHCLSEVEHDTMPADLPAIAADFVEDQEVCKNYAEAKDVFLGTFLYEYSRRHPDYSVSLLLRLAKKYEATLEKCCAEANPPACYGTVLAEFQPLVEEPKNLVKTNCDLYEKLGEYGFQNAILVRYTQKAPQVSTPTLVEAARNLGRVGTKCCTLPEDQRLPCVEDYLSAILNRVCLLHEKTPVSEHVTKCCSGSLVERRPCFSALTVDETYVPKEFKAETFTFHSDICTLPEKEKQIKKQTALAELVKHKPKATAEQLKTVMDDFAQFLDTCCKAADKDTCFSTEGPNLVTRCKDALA
# Sequence of UniProt P02768 (P02768 25-609 limits assumed): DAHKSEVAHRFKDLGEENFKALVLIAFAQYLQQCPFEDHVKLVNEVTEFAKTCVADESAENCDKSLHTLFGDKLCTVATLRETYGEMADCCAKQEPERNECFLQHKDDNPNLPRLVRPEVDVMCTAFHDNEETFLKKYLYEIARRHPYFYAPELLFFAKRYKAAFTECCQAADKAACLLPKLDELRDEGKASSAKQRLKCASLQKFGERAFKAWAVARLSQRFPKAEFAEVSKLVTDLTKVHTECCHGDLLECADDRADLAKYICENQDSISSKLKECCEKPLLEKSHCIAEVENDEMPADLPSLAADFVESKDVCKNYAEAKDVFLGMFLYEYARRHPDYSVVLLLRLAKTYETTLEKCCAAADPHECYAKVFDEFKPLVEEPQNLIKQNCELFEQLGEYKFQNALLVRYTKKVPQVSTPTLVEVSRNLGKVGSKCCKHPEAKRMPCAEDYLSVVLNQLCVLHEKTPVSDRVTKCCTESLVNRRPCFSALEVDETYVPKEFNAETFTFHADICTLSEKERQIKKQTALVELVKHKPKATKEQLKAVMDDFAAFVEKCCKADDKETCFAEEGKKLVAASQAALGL
substance,measurement,setting,value
SS1-ABD-dsFv-PE38 (LMB-209),Affinity,[1],0.11 nM
same,Affinity,[2],0.16 nM
